The results in this text go back to patent publication US20220332804A1 (CSL INNOVATION, published 2022).

Holding throughout (experiment): SPR, antibody captured, C2 as analyte;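 further: biacore at 37 °C, anti-C2 mAbs held by immobilised goat anti-human IgG, C2 alanine or serine mutants injected, double-referenced sensorgrams fitted to a 1:1 kinetic or steady-state model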
One assay concerns the target T1, human C2 S473A (human, UniProt P06681 21-752).
T1 sequence: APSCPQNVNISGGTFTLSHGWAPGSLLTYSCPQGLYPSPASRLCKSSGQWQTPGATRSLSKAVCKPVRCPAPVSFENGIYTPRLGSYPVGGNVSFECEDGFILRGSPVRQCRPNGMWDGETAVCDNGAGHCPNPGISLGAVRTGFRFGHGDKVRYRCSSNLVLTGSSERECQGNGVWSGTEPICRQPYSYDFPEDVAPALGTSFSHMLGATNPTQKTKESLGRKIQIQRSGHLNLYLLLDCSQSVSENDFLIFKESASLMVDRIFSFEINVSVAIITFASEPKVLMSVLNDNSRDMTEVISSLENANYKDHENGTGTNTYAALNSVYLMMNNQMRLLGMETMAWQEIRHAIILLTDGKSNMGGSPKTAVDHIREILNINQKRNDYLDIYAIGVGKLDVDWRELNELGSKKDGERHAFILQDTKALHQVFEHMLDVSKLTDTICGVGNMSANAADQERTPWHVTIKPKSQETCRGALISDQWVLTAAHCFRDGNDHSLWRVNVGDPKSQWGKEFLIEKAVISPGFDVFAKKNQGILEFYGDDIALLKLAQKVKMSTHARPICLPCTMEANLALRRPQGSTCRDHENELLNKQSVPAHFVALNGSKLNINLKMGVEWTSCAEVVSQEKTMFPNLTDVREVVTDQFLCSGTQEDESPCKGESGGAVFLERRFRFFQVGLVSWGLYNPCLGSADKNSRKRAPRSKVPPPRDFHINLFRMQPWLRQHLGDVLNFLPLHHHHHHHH

A further assay deals with T2, human C2 K457A (human, UniProt P06681 21-752).
T2 sequence: T1 sequence with K437A, A453S

The target of the next assay is T3, human C2 T317A (human, UniProt P06681 21-752).
T3 sequence: T1 sequence with T297A, A453S

A further assay has as its target T4, human C2 D431A (human, UniProt P06681 21-752).
T4 sequence: T1 sequence with D411A, A453S

Residue numbers refer to the chain shown, from its start.

B1: RF16-242 (antibody, human IgG4 S228P, lambda, V domains shown)
VH: EVQLLQSGAEVKKPGESLKISCKGSGYSFTSYWIGWVRQMPGKGLEWMGIIYPGDSDTRYSPSFQGQVTISADKSISTAYLQWSSLKASDTAMYYCARRGHYGDYFDYWGQGTLVTVSS
VL: SYELTQPPSVSVSPGQTARITCSGDALPKKYAYWYHQKSGQAPVLVIYEDRRRPSEIPERFSGSSSGTMATLTITGAQVEDEGVYFCYSRDRAGNQRVFGGGTQLTVLG
notes: pH-dependent anti-C2 antibody from a phage display library
B1: the Kd in the assay with human C2 S473A turned out to be 15.5 nM; in the assay with human C2 K457A, 233 nM; in the assay with human C2 T317A, 5.9 nM; with human C2 D431A, 22.9 nM.
